Assay results as given in paper PMC9259988, “Heterologous Expression and Evaluation of Novel Plasmodium falciparum Transmission Blocking Vaccine Candidates” (Frontiers in Immunology, 2022).

Biological target: the molecule itself
Assay: non-reducing and reducing SDS-PAGE; purified protein run non-reduced and reduced (10 mM dithiothreitol) on a 4-20% Bis-Tris gel, Coomassie-type staining

B1: Pf3D7_1143700 fragment 1-100 expressed in Drosophila melanogaster S2 cells (TBC1^DM) (domain or fragment, Plasmodium falciparum 3D7, UniProt Q8IHS8 1-100, looked up)
chain: MKVKIGSFENFLERLNNIKEEDIIINDENTEEMFSSFLITFYKENEGRYTIQEQEYINNLLNILINKIRDNKNGRNFFSNLLCIHFKSITPYFINVKLKD
notes: Conserved Plasmodium protein, unknown function, PF3D7_1143700, Plasmodium falciparum 3D7 genome (PlasmoDB), residues 1-100; codon-optimised synthetic gene; secreted; the dimer is held by a disulphide bond
stoichiometry N: 2
